Results from US7122190.

How the values were obtained:
[1] = biological target: viral gp41 (HIV-1IIIB transmembrane protein on infected cells and virions) (HIV-1IIIB) (UniProt P04578); experiment: cell-based or functional assay
[2] = biological target: viral gp41 of HIV-1 (on virions and HIV-1 infected cells) (HIV-1) (UniProt P03377); experiment: cell-based or functional assay

Substance	Cell fusion (IC90) [1]	HIV infectivity (IC90) [1]	90% block of syncytia formation (HIV-1IIIB cell fusion assay) [2]	90% neutralisation of HIV-1IIIB infection [2]
M41 (maltose binding protein fused to the extracellular domain of HIV-1 gp41, residues 540-686) (from UniProt P03377 540-686)	> 50 µM	> 16 µM	–	–
M41-P, M41 with an Ile to Pro mutation at position 578 (from UniProt P03377 540-686)	–	–	85 nM	70 nM
